Test results as given in patent US20230220021A1 (UNIVERSITY OF COPENHAGEN, published 2023).
Where two headings read alike, the source gives them in different places. [ ]: non-standard residue; d: D form.

Tests used:
[1] = biological target: T1, (7× His)-PSD-95-PDZ2 wild type (UniProt P78352 160-246); assay: FP competition
T1 construct: domain: PDZ2; recombinant from E. coli; also called PSD-95-PDZ2 WT; not shown: 7x His tag

[2] = biological target: T1, (7× His)-PSD-95-PDZ2 wild type; assay: FP competition; remark: listed apart in the source
Description: Fluorescence polarization (FP). FP assays were performed in a 384-well plate format. Fluorescence polarization was measured using a Safire 2 plate reader. The instrument Z-factor was optimized for each assay. The G-factor was calibrated to an initial milli polarization value of 20. […] Every measurement was performed in NaPI 50 mM, 50 mM NaCl and 1% BSA at pH 7.2, 25° C. […] The curves were done in triplicates. […] The mili polarization (mP) values were plotted as a function of peptide concentration and fitted to a sigmoidal dose-response curve using Prism software 8.0 (GraphPad). The Kᵢ values were calculated according to Nikolovska-Coleska Z. et al.⁴⁰⁻⁴¹

T1 sequence (P78352 160-246): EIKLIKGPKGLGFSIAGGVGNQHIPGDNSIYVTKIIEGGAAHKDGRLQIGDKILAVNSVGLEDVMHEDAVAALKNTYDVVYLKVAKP

Binder	Ki [1] [nM]	Ki [2] [nM]	Relative Ki (Ki mut/Ki WT) [2]
THLETXFTGDGTPKTIRVTQPGQ (cyclic; D-Pro; N-methyl Thr 110) [cyclic nNOS β-hairpin peptide N-Me-T110]	1470	–	–
THLETTFTXDGTPKTIRVTQPGQ (cyclic; D-Pro; N-methyl Gly 113) [cyclic nNOS β-hairpin peptide N-Me-G113]	6190	–	–
THLETTFTGXGTPKTIRVTQPGQ (cyclic; D-Pro; N-methyl Asp 114) [cyclic nNOS β-hairpin peptide N-Me-D114]	620	–	–
THLETTFXGDGTPKTIRVTQPGQ (cyclic; D-Pro; N-methyl Thr 112) [cyclic nNOS β-hairpin peptide N-Me-T112]	1080	–	–
cyclo(THAETTFTGDGTPKTIRVTQ[dP]GQ) (SMILES CC[C@H](C)[C@@H]1NC(=O)[C@H]([C@@H](C)O)NC(=O)[C@H](CCCCN)NC(=O)[C@@H]2CCCN2C(=O)[C@H]([C@@H](C)O)NC(=O)CNC(=O)[C@H](CC(=O)O)NC(=O)CNC(=O)[C@H]([C@@H](C)O)NC(=O)[C@H](Cc2ccccc2)NC(=O)[C@H]([C@@H](C)O)NC(=O)[C@H]([C@@H](C)O)NC(=O)[C@H](CCC(=O)O)NC(=O)[C@H](C)NC(=O)[C@H](Cc2c[nH]cn2)NC(=O)[C@H]([C@@H](C)O)NC(=O)[C@H](CCC(N)=O)NC(=O)CNC(=O)[C@H]2CCCN2C(=O)[C@H](CCC(N)=O)NC(=O)[C@H]([C@@H](C)O)NC(=O)[C@H](C(C)C)NC(=O)[C@H](CCCNC(=N)N)NC1=O) [cyclic nNOS β-hairpin peptide L107A]	–	3540	2.36
cyclo(THLETTFTGDGTAKTIRVTQ[dP]GQ) (SMILES CC[C@H](C)[C@@H]1NC(=O)[C@H]([C@@H](C)O)NC(=O)[C@H](CCCCN)NC(=O)[C@H](C)NC(=O)[C@H]([C@@H](C)O)NC(=O)CNC(=O)[C@H](CC(=O)O)NC(=O)CNC(=O)[C@H]([C@@H](C)O)NC(=O)[C@H](Cc2ccccc2)NC(=O)[C@H]([C@@H](C)O)NC(=O)[C@H]([C@@H](C)O)NC(=O)[C@H](CCC(=O)O)NC(=O)[C@H](CC(C)C)NC(=O)[C@H](Cc2c[nH]cn2)NC(=O)[C@H]([C@@H](C)O)NC(=O)[C@H](CCC(N)=O)NC(=O)CNC(=O)[C@H]2CCCN2C(=O)[C@H](CCC(N)=O)NC(=O)[C@H]([C@@H](C)O)NC(=O)[C@H](C(C)C)NC(=O)[C@H](CCCNC(=N)N)NC1=O) [cyclic nNOS β-hairpin peptide P117A]	–	1610	1.07
cyclo(THLETTFTGDGTPKTIRVTA[dP]GQ) (SMILES CC[C@H](C)[C@@H]1NC(=O)[C@H]([C@@H](C)O)NC(=O)[C@H](CCCCN)NC(=O)[C@@H]2CCCN2C(=O)[C@H]([C@@H](C)O)NC(=O)CNC(=O)[C@H](CC(=O)O)NC(=O)CNC(=O)[C@H]([C@@H](C)O)NC(=O)[C@H](Cc2ccccc2)NC(=O)[C@H]([C@@H](C)O)NC(=O)[C@H]([C@@H](C)O)NC(=O)[C@H](CCC(=O)O)NC(=O)[C@H](CC(C)C)NC(=O)[C@H](Cc2c[nH]cn2)NC(=O)[C@H]([C@@H](C)O)NC(=O)[C@H](CCC(N)=O)NC(=O)CNC(=O)[C@H]2CCCN2C(=O)[C@H](C)NC(=O)[C@H]([C@@H](C)O)NC(=O)[C@H](C(C)C)NC(=O)[C@H](CCCNC(=N)N)NC1=O) [cyclic nNOS β-hairpin peptide Q124A]	–	1510	1.01

Further lines, results first:

Ki [1] [nM]	Ki [2] [nM]	Relative Ki (Ki mut/Ki WT) [2]	Binder
–	1550	1.03	cyclo(THLETTFTGDGTPKTIRVAQ[dP]GQ) (SMILES CC[C@H](C)[C@@H]1NC(=O)[C@H]([C@@H](C)O)NC(=O)[C@H](CCCCN)NC(=O)[C@@H]2CCCN2C(=O)[C@H]([C@@H](C)O)NC(=O)CNC(=O)[C@H](CC(=O)O)NC(=O)CNC(=O)[C@H]([C@@H](C)O)NC(=O)[C@H](Cc2ccccc2)NC(=O)[C@H]([C@@H](C)O)NC(=O)[C@H]([C@@H](C)O)NC(=O)[C@H](CCC(=O)O)NC(=O)[C@H](CC(C)C)NC(=O)[C@H](Cc2c[nH]cn2)NC(=O)[C@H]([C@@H](C)O)NC(=O)[C@H](CCC(N)=O)NC(=O)CNC(=O)[C@H]2CCCN2C(=O)[C@H](CCC(N)=O)NC(=O)[C@H](C)NC(=O)[C@H](C(C)C)NC(=O)[C@H](CCCNC(=N)N)NC1=O) [cyclic nNOS β-hairpin peptide T123A]
–	17000	11.3	cyclo(THLETTFTGDGTPKAIRVTQ[dP]GQ) (SMILES CC[C@H](C)[C@@H]1NC(=O)[C@H](C)NC(=O)[C@H](CCCCN)NC(=O)[C@@H]2CCCN2C(=O)[C@H]([C@@H](C)O)NC(=O)CNC(=O)[C@H](CC(=O)O)NC(=O)CNC(=O)[C@H]([C@@H](C)O)NC(=O)[C@H](Cc2ccccc2)NC(=O)[C@H]([C@@H](C)O)NC(=O)[C@H]([C@@H](C)O)NC(=O)[C@H](CCC(=O)O)NC(=O)[C@H](CC(C)C)NC(=O)[C@H](Cc2c[nH]cn2)NC(=O)[C@H]([C@@H](C)O)NC(=O)[C@H](CCC(N)=O)NC(=O)CNC(=O)[C@H]2CCCN2C(=O)[C@H](CCC(N)=O)NC(=O)[C@H]([C@@H](C)O)NC(=O)[C@H](C(C)C)NC(=O)[C@H](CCCNC(=N)N)NC1=O) [cyclic nNOS β-hairpin peptide T119A]
–	2470	1.65	cyclo(THLETTFTGDGTPKTIAVTQ[dP]GQ) (SMILES CC[C@H](C)[C@@H]1NC(=O)[C@H]([C@@H](C)O)NC(=O)[C@H](CCCCN)NC(=O)[C@@H]2CCCN2C(=O)[C@H]([C@@H](C)O)NC(=O)CNC(=O)[C@H](CC(=O)O)NC(=O)CNC(=O)[C@H]([C@@H](C)O)NC(=O)[C@H](Cc2ccccc2)NC(=O)[C@H]([C@@H](C)O)NC(=O)[C@H]([C@@H](C)O)NC(=O)[C@H](CCC(=O)O)NC(=O)[C@H](CC(C)C)NC(=O)[C@H](Cc2c[nH]cn2)NC(=O)[C@H]([C@@H](C)O)NC(=O)[C@H](CCC(N)=O)NC(=O)CNC(=O)[C@H]2CCCN2C(=O)[C@H](CCC(N)=O)NC(=O)[C@H]([C@@H](C)O)NC(=O)[C@H](C(C)C)NC(=O)[C@H](C)NC1=O) [cyclic nNOS β-hairpin peptide R121A]
–	1240	0.83	cyclo(THLETTFTGDGAPKTIRVTQ[dP]GQ) (SMILES CC[C@H](C)[C@@H]1NC(=O)[C@H]([C@@H](C)O)NC(=O)[C@H](CCCCN)NC(=O)[C@@H]2CCCN2C(=O)[C@H](C)NC(=O)CNC(=O)[C@H](CC(=O)O)NC(=O)CNC(=O)[C@H]([C@@H](C)O)NC(=O)[C@H](Cc2ccccc2)NC(=O)[C@H]([C@@H](C)O)NC(=O)[C@H]([C@@H](C)O)NC(=O)[C@H](CCC(=O)O)NC(=O)[C@H](CC(C)C)NC(=O)[C@H](Cc2c[nH]cn2)NC(=O)[C@H]([C@@H](C)O)NC(=O)[C@H](CCC(N)=O)NC(=O)CNC(=O)[C@H]2CCCN2C(=O)[C@H](CCC(N)=O)NC(=O)[C@H]([C@@H](C)O)NC(=O)[C@H](C(C)C)NC(=O)[C@H](CCCNC(=N)N)NC1=O) [cyclic nNOS β-hairpin peptide T116A]
–	1500	1	cyclo(AHLETTFTGDGTPKTIRVTQ[dP]GQ) (SMILES CC[C@H](C)[C@@H]1NC(=O)[C@H]([C@@H](C)O)NC(=O)[C@H](CCCCN)NC(=O)[C@@H]2CCCN2C(=O)[C@H]([C@@H](C)O)NC(=O)CNC(=O)[C@H](CC(=O)O)NC(=O)CNC(=O)[C@H]([C@@H](C)O)NC(=O)[C@H](Cc2ccccc2)NC(=O)[C@H]([C@@H](C)O)NC(=O)[C@H]([C@@H](C)O)NC(=O)[C@H](CCC(=O)O)NC(=O)[C@H](CC(C)C)NC(=O)[C@H](Cc2c[nH]cn2)NC(=O)[C@H](C)NC(=O)[C@H](CCC(N)=O)NC(=O)CNC(=O)[C@H]2CCCN2C(=O)[C@H](CCC(N)=O)NC(=O)[C@H]([C@@H](C)O)NC(=O)[C@H](C(C)C)NC(=O)[C@H](CCCNC(=N)N)NC1=O) [cyclic nNOS β-hairpin peptide T105A]
–	1770	1.18	cyclo(THLETTFAGDGTPKTIRVTQ[dP]GQ) (SMILES CC[C@H](C)[C@@H]1NC(=O)[C@H]([C@@H](C)O)NC(=O)[C@H](CCCCN)NC(=O)[C@@H]2CCCN2C(=O)[C@H]([C@@H](C)O)NC(=O)CNC(=O)[C@H](CC(=O)O)NC(=O)CNC(=O)[C@H](C)NC(=O)[C@H](Cc2ccccc2)NC(=O)[C@H]([C@@H](C)O)NC(=O)[C@H]([C@@H](C)O)NC(=O)[C@H](CCC(=O)O)NC(=O)[C@H](CC(C)C)NC(=O)[C@H](Cc2c[nH]cn2)NC(=O)[C@H]([C@@H](C)O)NC(=O)[C@H](CCC(N)=O)NC(=O)CNC(=O)[C@H]2CCCN2C(=O)[C@H](CCC(N)=O)NC(=O)[C@H]([C@@H](C)O)NC(=O)[C@H](C(C)C)NC(=O)[C@H](CCCNC(=N)N)NC1=O) [cyclic nNOS β-hairpin peptide T112A]
–	2230	1.49	cyclo(THLETTFTGDGTPKTIRATQ[dP]GQ) (SMILES CC[C@H](C)[C@@H]1NC(=O)[C@H]([C@@H](C)O)NC(=O)[C@H](CCCCN)NC(=O)[C@@H]2CCCN2C(=O)[C@H]([C@@H](C)O)NC(=O)CNC(=O)[C@H](CC(=O)O)NC(=O)CNC(=O)[C@H]([C@@H](C)O)NC(=O)[C@H](Cc2ccccc2)NC(=O)[C@H]([C@@H](C)O)NC(=O)[C@H]([C@@H](C)O)NC(=O)[C@H](CCC(=O)O)NC(=O)[C@H](CC(C)C)NC(=O)[C@H](Cc2c[nH]cn2)NC(=O)[C@H]([C@@H](C)O)NC(=O)[C@H](CCC(N)=O)NC(=O)CNC(=O)[C@H]2CCCN2C(=O)[C@H](CCC(N)=O)NC(=O)[C@H]([C@@H](C)O)NC(=O)[C@H](C)NC(=O)[C@H](CCCNC(=N)N)NC1=O) [cyclic nNOS β-hairpin peptide V122A]
–	3930	2.62	cyclo(THLETAFTGDGTPKTIRVTQ[dP]GQ) (SMILES CC[C@H](C)[C@@H]1NC(=O)[C@H]([C@@H](C)O)NC(=O)[C@H](CCCCN)NC(=O)[C@@H]2CCCN2C(=O)[C@H]([C@@H](C)O)NC(=O)CNC(=O)[C@H](CC(=O)O)NC(=O)CNC(=O)[C@H]([C@@H](C)O)NC(=O)[C@H](Cc2ccccc2)NC(=O)[C@H](C)NC(=O)[C@H]([C@@H](C)O)NC(=O)[C@H](CCC(=O)O)NC(=O)[C@H](CC(C)C)NC(=O)[C@H](Cc2c[nH]cn2)NC(=O)[C@H]([C@@H](C)O)NC(=O)[C@H](CCC(N)=O)NC(=O)CNC(=O)[C@H]2CCCN2C(=O)[C@H](CCC(N)=O)NC(=O)[C@H]([C@@H](C)O)NC(=O)[C@H](C(C)C)NC(=O)[C@H](CCCNC(=N)N)NC1=O) [cyclic nNOS β-hairpin peptide T110A]
